Results reported in article PMC7505815, “Estrogen receptor alpha (ERα)–mediated coregulator binding and gene expression discriminates the toxic ERα agonist diethylstilbestrol (DES) from the endogenous ERα agonist 17β-estradiol (E2)” (Cell Biology and Toxicology, 2020).

T1: Polyhistidine (His) tagged ERα ligand binding domain (amino acids 302–552) (UniProt P03372 302-552)
T1 construct: Detected on the array by a penta-His Alexa Fluor 488 antibody; Always tested with E2, DES or solvent (2% DMSO); also called ERα-LBD; source: partly purified from Escherichia coli (Qiagen)
T1 sequence (looked up): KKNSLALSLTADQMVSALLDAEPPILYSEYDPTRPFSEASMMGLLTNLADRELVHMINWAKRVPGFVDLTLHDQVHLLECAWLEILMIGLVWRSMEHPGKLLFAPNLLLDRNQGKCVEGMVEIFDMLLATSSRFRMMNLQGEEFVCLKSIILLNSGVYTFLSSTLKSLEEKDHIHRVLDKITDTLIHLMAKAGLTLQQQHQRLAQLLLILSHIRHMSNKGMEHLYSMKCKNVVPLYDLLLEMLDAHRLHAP

B1: TRIP4_149_171_C171S (peptide, UniProt Q15650 149-171, looked up)
peptide: FVNLYTREGQDRLAVLLPGRHPS
notes: Immobilised on the PamChip; source: bought: PamChip peptide microarray, PamGene International BV
B2: NRIP1_173_195 (peptide, UniProt P48552 173-195, looked up)
peptide: KDLRCYGVASSHLKTLLKKSKVK
notes: as for B1
B3: TIF1A_373_395_C394S (peptide, UniProt O15164 373-395, looked up)
peptide: TALLYSKRLITYRLRHLLRARSD
notes: as for B1
B4: NCOR1_662_684_C662S (peptide, UniProt O75376 662-684, looked up)
peptide: SKNFYFNYKRRHNLDNLLQQHKQ
notes: as for B1
B5: CBP_2055_2077 (peptide, UniProt Q92793 2055-2077, looked up)
peptide: SVQPPRSISPSALQDLLRTLKSP
notes: as for B1
B6: NRIP1_173_195_C177S (peptide, UniProt P48552 173-195, looked up)
peptide: KDLRSYGVASSHLKTLLKKSKVK
notes: as for B1
B7: NCOA1_1421_1441 (peptide, UniProt Q15788 1421-1441, looked up)
peptide: TSGPQTPQAQQKSLLQQLLTE
notes: as for B1
B8: ANDR_10_32 (peptide, UniProt P10275 10-32, looked up)
peptide: VYPRPPSKTYRGAFQNLFQSVRE
notes: Immobilised on the PamChip; also called Androgen receptor–related coregulator motif; source: bought: PamChip peptide microarray, PamGene International BV
B9: NCOA2_628_651 (peptide, UniProt Q15596 628-651, looked up)
peptide: GQSRLHDSKGQTKLLQLLTTKSDQ
notes: as for B1
B10: NCOA1_677_700 (peptide, UniProt Q15788 677-700, looked up)
peptide: PSSHSSLTERHKILHRLLQEGSPS
notes: as for B1

Each binder was assayed against T1, Polyhistidine (His) tagged ERα ligand … (assay: peptide or protein array; MARCoNI, PamChip peptide microarray: coregulator motif peptides immobilised; His-ERα-LBD 10 nM (partly purified) in solution with E2 (10^-12 to 10^-5 M), detected with penta-His Alexa Fluor 488 antibody 25 nM; 20 °C; 20 mM Tris-HCl pH 7.5, 500 mM NaCl, 0.2% BSA, 0.05% Tween 20, 2% DMSO). Conditions: both partners purified.

Binding result, binds:
B1
B2
B3
B4
B5
B6

Target: T1, Polyhistidine (His) tagged ERα ligand …
Assay: as above
Conditions: both partners purified
Remark: another data set of the same source

Binding result, binds:
B7
B8
B9
B10
